This is an account of results in US20100260668A1 (published 2010).

The target of the experiment is T1, DLL4 ECD His tag (UniProt Q9NR61 27-529, limits assumed).
T1 construct: extracellular domain; also called DLL ECD His tag
The experiment is described as follows: SPR (Biacore), DVD-Ig captured, DLL4 as analyte. For orientation: Surface plasmon resonance follows binding to a sensor surface in real time, without labels.

B1: DVD516 (bispecific antibody, human IgG1, lambda)
heavy: not shown
light: DIQMTQSPSSLSASVGDRVTITCRASQVIRRSLAWYQQKPGKAPKLLIYAASNLASGVPSRFSGSGSGTDFTLTISSLQPEDFATYYCQQSNTSPLTFGQGTKVEIKRTVAAPQAVVTQESALTTSPGETVTLTCRSSTGAVTTSNYANWVQEKPDHLFTGLIGGTNNRAPGVPARFSGSLIGDKAALTITGAQTEDEAIYFCALWYSNHWVFGGGTKLTVLGQPKAAPSVTLFPPSSEELQANKATLVCLISDFYPGAVTVAWKADSSPVKAGVETTTPSKQSNNKYAASSYLSLTPEQWKSHRSYSCQVTHEGSTVEKTVAPTECS
notes: Outer AB071 (VEGF), inner AB073 (DLL4); HC linker short, LC linker short; also called DVD-Ig DVD516
B1 yielded a Kd of 4.99 nM, a koff of 0.000583 s⁻¹ and a kon of 117000 M⁻¹ s⁻¹.

B2: DVD528 (bispecific antibody, human IgG1, lambda)
heavy: not shown
light: B1 light
notes: Outer AB071 (VEGF), inner AB073 (DLL4); HC linker long, LC linker short; also called DVD-Ig DVD528
On to B2, for which binding was characterised by a dissociation constant (Kd) of 4.81 nM, the off-rate (koff) came to 0.00152 s⁻¹ and the association rate constant (kon) came to 316000 M⁻¹ s⁻¹.

B3: DVD474 (bispecific antibody, human IgG1, kappa)
heavy: not shown
light: DIQMTQSPSSLSASVGDRVTITCRASQVIRRSLAWYQQKPGKAPKLLIYAASNLASGVPSRFSGSGSGTDFTLTISSLQPEDFATYYCQQSNTSPLTFGQGTKVEIKRTVAAPSVFIFPPDIQMTQSPSSLSASVGDRVTITCRASQDVSTAVAWYQQKPGKAPKLLIYSASFLYSGVPSRFSGSGSGTDFTLTISSLQPEDFATTYYCQQSYTGTVTFGQGTKVEIKRTVAAPSVFIFPPSDEQLKSGTASVVCLLNNFYPREAKVQWKVDNALQSGNSQESVTEQDSKDSTYSLSSTLTLSKADYEKHKVYACEVTHQGLSSPVTKSFNRGEC
notes: Outer AB071 (VEGF), inner AB015 (DLL4); HC linker long, LC linker long; also called DVD-Ig DVD474
B3 returned a Kd of 1.04 nM.

B4: DVD486 (bispecific antibody, human IgG1, kappa)
heavy: not shown
light: B3 light
notes: Outer AB071 (VEGF), inner AB015 (DLL4); HC linker short, LC linker long; also called DVD-Ig DVD486
In the case of B4, the Kd came to 2.13 nM.

B5: DVD446 (bispecific antibody, human IgG1, kappa)
heavy: not shown
light: DIQMTQSPSSLSASVGDRVTITCRASQVIRRSLAWYQQKPGKAPKLLIYAASNLASGVPSRFSGSGSGTDFTLTISSLQPEDFATYYCQQSNTSPLTFGQGTKVEIKRTVAAPDIVMTQSPDSLAVSLGERATISCRASESVDNYGISFMKWFQQKPGQPPKLLIYAASNQGSGVPDRFSGSGSGTDFTLTISSLQAEDVAVYYCQQSKEVPWTFGGGTKVEIKRTVAAPSVFIFPPSDEQLKSGTASVVCLLNNFYPREAKVQWKVDNALQSGNSQESVTEQDSKDSTYSLSSTLTLSKADYEKHKVYACEVTHQGLSSPVTKSFNRGEC
notes: Outer AB071 (VEGF), inner AB069 (DLL4); HC linker short, LC linker short; also called DVD-Ig DVD446
The molecule B5 displayed a dissociation constant (Kd) of 5.81 nM, a dissociation rate constant (koff) of 0.000169 s⁻¹ and an association rate constant (kon) of 29100 M⁻¹ s⁻¹.

B6: DVD458 (bispecific antibody, human IgG1, kappa, L234A L235A)
heavy: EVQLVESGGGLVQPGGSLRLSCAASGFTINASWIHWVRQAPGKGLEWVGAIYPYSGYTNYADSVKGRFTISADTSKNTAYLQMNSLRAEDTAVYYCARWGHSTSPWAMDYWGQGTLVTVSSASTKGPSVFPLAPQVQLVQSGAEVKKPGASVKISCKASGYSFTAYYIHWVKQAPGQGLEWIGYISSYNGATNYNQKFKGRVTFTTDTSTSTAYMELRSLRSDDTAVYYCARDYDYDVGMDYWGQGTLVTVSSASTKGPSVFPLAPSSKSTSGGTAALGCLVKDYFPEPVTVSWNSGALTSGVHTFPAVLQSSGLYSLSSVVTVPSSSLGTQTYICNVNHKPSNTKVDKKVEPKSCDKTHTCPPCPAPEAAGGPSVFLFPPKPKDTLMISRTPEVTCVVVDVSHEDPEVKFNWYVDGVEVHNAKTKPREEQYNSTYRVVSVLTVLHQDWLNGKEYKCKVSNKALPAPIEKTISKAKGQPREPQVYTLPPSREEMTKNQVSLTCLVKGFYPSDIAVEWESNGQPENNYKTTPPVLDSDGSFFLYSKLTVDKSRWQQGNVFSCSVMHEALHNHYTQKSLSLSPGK
light: B5 light
notes: Outer AB071 (VEGF), inner AB069 (DLL4); HC linker long, LC linker short; also called DVD-Ig DVD458
The molecule B6 gave a Kd of 16.2 nM, a koff of 0.000261 s⁻¹ and an on-rate (kon) of 16100 M⁻¹ s⁻¹.

B7: DVD480 (bispecific antibody, human IgG1, kappa)
heavy: not shown
light: DIQMTQSPSSLSASVGDRVTITCRASQVIRRSLAWYQQKPGKAPKLLIYAASNLASGVPSRFSGSGSGTDFTLTISSLQPEDFATYYCQQSNTSPLTFGQGTKVEIKRTVAAPDIQMTQSPSSLSASVGDRVTITCRASQDVSTAVAWYQQKPGKAPKLLIYSASFLYSGVPSRFSGSGSGTDFTLTISSLQPEDFATTYYCQQSYTGTVTFGQGTKVEIKRTVAAPSVFIFPPSDEQLKSGTASVVCLLNNFYPREAKVQWKVDNALQSGNSQESVTEQDSKDSTYSLSSTLTLSKADYEKHKVYACEVTHQGLSSPVTKSFNRGEC
notes: Outer AB071 (VEGF), inner AB015 (DLL4); HC linker long, LC linker short; also called DVD-Ig DVD480
As to B7, the Kd is 3.38 nM, the koff turned out to be 0.000179 s⁻¹ and the kon was 53000 M⁻¹ s⁻¹.

B8: DVD452 (bispecific antibody, human IgG1, kappa, L234A L235A)
heavy: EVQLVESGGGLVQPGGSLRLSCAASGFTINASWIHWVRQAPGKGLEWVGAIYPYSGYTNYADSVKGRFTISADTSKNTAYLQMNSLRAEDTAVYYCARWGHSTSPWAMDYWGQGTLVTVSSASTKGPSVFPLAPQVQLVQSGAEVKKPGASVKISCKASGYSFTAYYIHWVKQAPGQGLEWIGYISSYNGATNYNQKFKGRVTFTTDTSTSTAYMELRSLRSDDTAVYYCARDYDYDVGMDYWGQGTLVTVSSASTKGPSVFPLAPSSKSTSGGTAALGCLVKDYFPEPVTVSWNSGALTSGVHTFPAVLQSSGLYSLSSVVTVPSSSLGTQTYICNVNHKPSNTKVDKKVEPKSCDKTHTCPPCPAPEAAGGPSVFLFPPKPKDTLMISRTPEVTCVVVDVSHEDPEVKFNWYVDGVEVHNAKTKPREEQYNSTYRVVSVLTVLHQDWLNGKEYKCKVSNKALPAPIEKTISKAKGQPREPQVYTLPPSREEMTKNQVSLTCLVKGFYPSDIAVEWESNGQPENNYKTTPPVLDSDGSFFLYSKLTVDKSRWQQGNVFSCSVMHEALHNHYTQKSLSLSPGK
light: DIQMTQSPSSLSASVGDRVTITCRASQVIRRSLAWYQQKPGKAPKLLIYAASNLASGVPSRFSGSGSGTDFTLTISSLQPEDFATYYCQQSNTSPLTFGQGTKVEIKRTVAAPSVFIFPPDIVMTQSPDSLAVSLGERATISCRASESVDNYGISFMKWFQQKPGQPPKLLIYAASNQGSGVPDRFSGSGSGTDFTLTISSLQAEDVAVYYCQQSKEVPWTFGGGTKVEIKRTVAAPSVFIFPPSDEQLKSGTASVVCLLNNFYPREAKVQWKVDNALQSGNSQESVTEQDSKDSTYSLSSTLTLSKADYEKHKVYACEVTHQGLSSPVTKSFNRGEC
notes: Outer AB071 (VEGF), inner AB069 (DLL4); HC linker long, LC linker long; also called DVD-Ig DVD452
On to B8, for which the Kd turned out to be 9.3 nM, the koff came to 0.00022 s⁻¹ and the kon was 23700 M⁻¹ s⁻¹.

B9: DVD464 (bispecific antibody, human IgG1, kappa)
heavy: not shown
light: B8 light
notes: Outer AB071 (VEGF), inner AB069 (DLL4); HC linker short, LC linker long; also called DVD-Ig DVD464
Molecule B9 had a Kd of 5.53 nM, a koff of 0.000182 s⁻¹ and a kon of 32800 M⁻¹ s⁻¹.

B10: DVD522 (bispecific antibody, human IgG1, kappa, lambda, L234A L235A)
heavy: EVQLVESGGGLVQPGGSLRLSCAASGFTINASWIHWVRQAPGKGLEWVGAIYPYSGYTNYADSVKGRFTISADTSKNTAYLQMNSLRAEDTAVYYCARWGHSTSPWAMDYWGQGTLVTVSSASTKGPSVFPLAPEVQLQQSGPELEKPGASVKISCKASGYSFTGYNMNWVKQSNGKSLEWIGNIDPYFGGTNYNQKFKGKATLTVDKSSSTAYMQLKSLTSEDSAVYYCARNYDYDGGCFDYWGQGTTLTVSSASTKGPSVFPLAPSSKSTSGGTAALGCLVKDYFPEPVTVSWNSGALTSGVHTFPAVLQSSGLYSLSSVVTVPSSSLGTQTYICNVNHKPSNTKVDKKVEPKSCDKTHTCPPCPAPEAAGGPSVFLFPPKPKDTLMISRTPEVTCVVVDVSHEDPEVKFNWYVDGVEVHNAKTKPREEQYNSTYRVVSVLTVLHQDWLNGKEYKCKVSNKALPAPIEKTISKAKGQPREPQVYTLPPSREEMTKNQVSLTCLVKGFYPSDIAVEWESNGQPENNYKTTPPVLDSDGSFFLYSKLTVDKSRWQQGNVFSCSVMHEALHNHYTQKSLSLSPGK
light: DIQMTQSPSSLSASVGDRVTITCRASQVIRRSLAWYQQKPGKAPKLLIYAASNLASGVPSRFSGSGSGTDFTLTISSLQPEDFATYYCQQSNTSPLTFGQGTKVEIKRTVAAPSVFIFPPQAVVTQESALTTSPGETVTLTCRSSTGAVTTSNYANWVQEKPDHLFTGLIGGTNNRAPGVPARFSGSLIGDKAALTITGAQTEDEAIYFCALWYSNHWVFGGGTKLTVLGQPKAAPSVTLFPPSSEELQANKATLVCLISDFYPGAVTVAWKADSSPVKAGVETTTPSKQSNNKYAASSYLSLTPEQWKSHRSYSCQVTHEGSTVEKTVAPTECS
notes: Outer AB071 (VEGF), inner AB073 (DLL4); HC linker long, LC linker long; also called DVD-Ig DVD522
Take B10: binding was characterised by a dissociation constant (Kd) of 10.5 nM, the koff was found to be 0.00121 s⁻¹ and the kon was 115000 M⁻¹ s⁻¹.

What is called Kd is the concentration at which binding is half-saturated. The term koff denotes a measure of how fast the partners let go of each other. The term kon denotes the rate constant with which the complex forms.
